Laboratory results reported in US20130005646A1 (Novo Nordisk, published 2013).
Starred links: 1 amine or outer side, 2 acyl side, 3 side chain; linkers in the order of their positions; H or OH if unused. Positions of bridges follow the written chain, without caps; N, C: chain ends. *: point of attachment. C20 diacid = O=C(O)CCCCCCCCCCCCCCCCCCC(=O)*; γGlu = O=C(O)[C@H](CCC(=O)[*:2])N[*:1]

T1: human amylin 3(a) receptor (human calcitonin receptor + RAMP-3) (human, UniProt P30988 25-474; O60896 24-148)
T1 sequence (looked up) 1: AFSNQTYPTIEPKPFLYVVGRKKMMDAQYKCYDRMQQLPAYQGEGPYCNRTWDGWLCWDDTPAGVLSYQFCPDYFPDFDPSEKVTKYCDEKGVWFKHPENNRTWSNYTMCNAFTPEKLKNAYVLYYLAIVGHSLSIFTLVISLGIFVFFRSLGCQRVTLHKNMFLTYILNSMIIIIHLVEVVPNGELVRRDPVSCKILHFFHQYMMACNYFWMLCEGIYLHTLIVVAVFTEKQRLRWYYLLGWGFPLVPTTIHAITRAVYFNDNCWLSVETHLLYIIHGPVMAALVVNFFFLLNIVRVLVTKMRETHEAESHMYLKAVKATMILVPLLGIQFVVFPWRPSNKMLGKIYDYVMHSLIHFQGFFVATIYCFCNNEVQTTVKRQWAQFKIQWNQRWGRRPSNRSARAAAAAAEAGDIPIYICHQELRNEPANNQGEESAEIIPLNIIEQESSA
T1 sequence (looked up) 2: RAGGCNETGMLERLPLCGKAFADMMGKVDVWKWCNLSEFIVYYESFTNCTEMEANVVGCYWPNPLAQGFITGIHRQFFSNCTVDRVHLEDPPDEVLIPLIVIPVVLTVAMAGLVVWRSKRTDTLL

T2: human calcitonin (a) receptor (human, UniProt P30988 25-474)
T2 sequence (looked up): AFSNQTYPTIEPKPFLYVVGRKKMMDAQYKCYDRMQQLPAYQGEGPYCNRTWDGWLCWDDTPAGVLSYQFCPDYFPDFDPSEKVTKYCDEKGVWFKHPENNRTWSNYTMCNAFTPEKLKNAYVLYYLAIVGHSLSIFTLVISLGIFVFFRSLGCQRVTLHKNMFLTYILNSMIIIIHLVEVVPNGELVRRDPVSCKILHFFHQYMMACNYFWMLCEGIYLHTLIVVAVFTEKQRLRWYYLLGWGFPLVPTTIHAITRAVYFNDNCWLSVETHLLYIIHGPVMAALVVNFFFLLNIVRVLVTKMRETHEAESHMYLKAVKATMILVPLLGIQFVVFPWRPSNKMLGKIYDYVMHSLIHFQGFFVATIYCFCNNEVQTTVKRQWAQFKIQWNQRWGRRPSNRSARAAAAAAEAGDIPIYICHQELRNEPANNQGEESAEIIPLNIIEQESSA

T3: rat amylin 3(a) receptor (rat calcitonin(a) receptor + rat RAMP3) (rat, UniProt P32214 25-516; Q9JJ73 23-147)
T3 sequence (looked up) 1: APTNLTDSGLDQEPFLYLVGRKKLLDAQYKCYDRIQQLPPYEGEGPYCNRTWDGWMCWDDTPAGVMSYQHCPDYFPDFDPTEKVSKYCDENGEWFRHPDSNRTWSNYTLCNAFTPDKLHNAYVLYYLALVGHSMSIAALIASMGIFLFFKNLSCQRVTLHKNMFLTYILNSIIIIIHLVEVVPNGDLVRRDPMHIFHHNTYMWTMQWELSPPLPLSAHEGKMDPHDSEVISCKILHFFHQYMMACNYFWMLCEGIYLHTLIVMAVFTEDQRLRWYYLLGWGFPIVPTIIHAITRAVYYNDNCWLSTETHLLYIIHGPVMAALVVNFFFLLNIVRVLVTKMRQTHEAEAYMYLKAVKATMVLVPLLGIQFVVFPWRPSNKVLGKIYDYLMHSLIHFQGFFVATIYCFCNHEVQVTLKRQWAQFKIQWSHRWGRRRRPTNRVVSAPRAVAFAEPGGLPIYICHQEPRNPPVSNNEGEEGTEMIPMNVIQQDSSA
T3 sequence (looked up) 2: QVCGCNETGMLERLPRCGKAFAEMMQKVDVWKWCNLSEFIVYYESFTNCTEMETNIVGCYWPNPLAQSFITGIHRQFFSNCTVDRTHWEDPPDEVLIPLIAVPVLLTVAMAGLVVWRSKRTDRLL

T4: rat calcitonin (a) receptor (rat, UniProt P32214 25-516)
T4 sequence (looked up): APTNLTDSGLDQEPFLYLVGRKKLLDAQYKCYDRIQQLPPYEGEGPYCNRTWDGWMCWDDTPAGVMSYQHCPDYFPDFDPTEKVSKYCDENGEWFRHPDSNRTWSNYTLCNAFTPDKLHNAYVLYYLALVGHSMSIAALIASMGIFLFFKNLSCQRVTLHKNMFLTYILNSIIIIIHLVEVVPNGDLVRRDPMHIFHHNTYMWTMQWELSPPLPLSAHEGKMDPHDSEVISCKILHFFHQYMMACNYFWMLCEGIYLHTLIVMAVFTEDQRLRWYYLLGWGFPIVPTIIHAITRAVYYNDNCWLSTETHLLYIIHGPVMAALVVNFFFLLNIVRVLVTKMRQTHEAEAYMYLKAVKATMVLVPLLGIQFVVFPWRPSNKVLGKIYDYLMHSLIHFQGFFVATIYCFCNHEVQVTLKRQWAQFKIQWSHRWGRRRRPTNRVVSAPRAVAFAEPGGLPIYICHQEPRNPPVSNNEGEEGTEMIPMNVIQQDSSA


Columns and labels:
Assay in all cases: cell-based or functional assay
[1] = biological target: T1, human amylin 3(a) receptor (human …)
[2] = biological target: T2, human calcitonin (a) receptor
[3] = biological target: T3, rat amylin 3(a) receptor (rat …)
[4] = biological target: T4, rat calcitonin (a) receptor

Row | Amylin receptor human EC50 [1] [pM] | CTa receptor human EC50 [2] [pM] | Amylin receptor rat EC50 [3] [pM] | CTa receptor rat EC50 [4] [pM] | Binder
1 | 111 | 166 | 147 | 221 | {C20 diacid-γGlu}-HHCNTATCATQRLAEFLHHSSNNFGPILPPTNVGSNTY-NH2 (disulfide 3-8; SMILES CC[C@H](C)[C@H](NC(=O)[C@@H]1CCCN1C(=O)CNC(=O)[C@H](Cc1ccccc1)NC(=O)[C@H](CC(N)=O)NC(=O)[C@H](CC(N)=O)NC(=O)[C@H](CO)NC(=O)[C@H](CO)NC(=O)[C@H](Cc1c[nH]cn1)NC(=O)[C@H](Cc1c[nH]cn1)NC(=O)[C@H](CC(C)C)NC(=O)[C@H](Cc1ccccc1)NC(=O)[C@H](CCC(=O)O)NC(=O)[C@H](C)NC(=O)[C@H](CC(C)C)NC(=O)[C@H](CCCNC(=N)N)NC(=O)[C@H](CCC(N)=O)NC(=O)[C@@H](NC(=O)[C@H](C)NC(=O)[C@@H]1CSSC[C@H](NC(=O)[C@H](Cc2c[nH]cn2)NC(=O)[C@H](Cc2c[nH]cn2)NC(=O)CC[C@H](NC(=O)CCCCCCCCCCCCCCCCCCC(=O)O)C(=O)O)C(=O)N[C@@H](CC(N)=O)C(=O)N[C@@H]([C@@H](C)O)C(=O)N[C@@H](C)C(=O)N[C@@H]([C@@H](C)O)C(=O)N1)[C@@H](C)O)C(=O)N[C@@H](CC(C)C)C(=O)N1CCC[C@H]1C(=O)N1CCC[C@H]1C(=O)N[C@H](C(=O)N[C@@H](CC(N)=O)C(=O)N[C@H](C(=O)NCC(=O)N[C@@H](CO)C(=O)N[C@@H](CC(N)=O)C(=O)N[C@H](C(=O)N[C@@H](Cc1ccc(O)cc1)C(N)=O)[C@@H](C)O)C(C)C)[C@@H](C)O) [N-alpha-[(S)-4-Carboxy-4-(19-carboxynonadecanoylamino)butyryl]-His-[His1,Glu14,His17]-pramlintide]
2 | 131 | 126 | 187 | 1160 | {C20 diacid-γGlu}-HCNTATCATQRLAEFLHHSSNNFGPILPPTNVGSNTY-NH2 (disulfide 2-7; not fully specified; printed as N-alpha-[(S)-4-Carboxy-4-(19-carboxynonadecanoylamino)butyryl]-[His1,Glu14,His17]-pramlintide) [N-alpha-[(S)-4-Carboxy-4-(19-carboxynonadecanoylamino)butyryl]-[His1,Glu14,His17]-pramlintide]

Continued, binder first:

Row | Binder | Amylin receptor human EC50 [1] [pM] | CTa receptor human EC50 [2] [pM] | Amylin receptor rat EC50 [3] [pM] | CTa receptor rat EC50 [4] [pM]
3 | {C20 diacid-γGlu}-HHHCNTATCATQRLAEFLHHSSNNFGAPLSSTNVGSNTY-NH2 (disulfide 4-9; SMILES CC(C)C[C@H](NC(=O)[C@H](CCCNC(=N)N)NC(=O)[C@H](CCC(N)=O)NC(=O)[C@@H](NC(=O)[C@H](C)NC(=O)[C@@H]1CSSC[C@H](NC(=O)[C@H](Cc2c[nH]cn2)NC(=O)[C@H](Cc2c[nH]cn2)NC(=O)[C@H](Cc2c[nH]cn2)NC(=O)CC[C@H](NC(=O)CCCCCCCCCCCCCCCCCCC(=O)O)C(=O)O)C(=O)N[C@@H](CC(N)=O)C(=O)N[C@@H]([C@@H](C)O)C(=O)N[C@@H](C)C(=O)N[C@@H]([C@@H](C)O)C(=O)N1)[C@@H](C)O)C(=O)N[C@@H](C)C(=O)N[C@@H](CCC(=O)O)C(=O)N[C@@H](Cc1ccccc1)C(=O)N[C@@H](CC(C)C)C(=O)N[C@@H](Cc1c[nH]cn1)C(=O)N[C@@H](Cc1c[nH]cn1)C(=O)N[C@@H](CO)C(=O)N[C@@H](CO)C(=O)N[C@@H](CC(N)=O)C(=O)N[C@@H](CC(N)=O)C(=O)N[C@@H](Cc1ccccc1)C(=O)NCC(=O)N[C@@H](C)C(=O)N1CCC[C@H]1C(=O)N[C@@H](CC(C)C)C(=O)N[C@@H](CO)C(=O)N[C@@H](CO)C(=O)N[C@H](C(=O)N[C@@H](CC(N)=O)C(=O)N[C@H](C(=O)NCC(=O)N[C@@H](CO)C(=O)N[C@@H](CC(N)=O)C(=O)N[C@H](C(=O)N[C@@H](Cc1ccc(O)cc1)C(N)=O)[C@@H](C)O)C(C)C)[C@@H](C)O) | 105 | 310 | 132 | 824
4 | {C20 diacid-γGlu}-HHHCNTATCATQRLAEFLRHSSNNFGPILPPTNVGSNTY-NH2 (disulfide 4-9; SMILES CC[C@H](C)[C@H](NC(=O)[C@@H]1CCCN1C(=O)CNC(=O)[C@H](Cc1ccccc1)NC(=O)[C@H](CC(N)=O)NC(=O)[C@H](CC(N)=O)NC(=O)[C@H](CO)NC(=O)[C@H](CO)NC(=O)[C@H](Cc1c[nH]cn1)NC(=O)[C@H](CCCNC(=N)N)NC(=O)[C@H](CC(C)C)NC(=O)[C@H](Cc1ccccc1)NC(=O)[C@H](CCC(=O)O)NC(=O)[C@H](C)NC(=O)[C@H](CC(C)C)NC(=O)[C@H](CCCNC(=N)N)NC(=O)[C@H](CCC(N)=O)NC(=O)[C@@H](NC(=O)[C@H](C)NC(=O)[C@@H]1CSSC[C@H](NC(=O)[C@H](Cc2c[nH]cn2)NC(=O)[C@H](Cc2c[nH]cn2)NC(=O)[C@H](Cc2c[nH]cn2)NC(=O)CC[C@H](NC(=O)CCCCCCCCCCCCCCCCCCC(=O)O)C(=O)O)C(=O)N[C@@H](CC(N)=O)C(=O)N[C@@H]([C@@H](C)O)C(=O)N[C@@H](C)C(=O)N[C@@H]([C@@H](C)O)C(=O)N1)[C@@H](C)O)C(=O)N[C@@H](CC(C)C)C(=O)N1CCC[C@H]1C(=O)N1CCC[C@H]1C(=O)N[C@H](C(=O)N[C@@H](CC(N)=O)C(=O)N[C@H](C(=O)NCC(=O)N[C@@H](CO)C(=O)N[C@@H](CC(N)=O)C(=O)N[C@H](C(=O)N[C@@H](Cc1ccc(O)cc1)C(N)=O)[C@@H](C)O)C(C)C)[C@@H](C)O) | 77.5 | 408 | 82 | 6760
5 | {C20 diacid-γGlu}-HHHCNTATCATQRLAEFLHHSSNNFGPILPPTNVGSRTY-NH2 (disulfide 4-9; SMILES CC[C@H](C)[C@H](NC(=O)[C@@H]1CCCN1C(=O)CNC(=O)[C@H](Cc1ccccc1)NC(=O)[C@H](CC(N)=O)NC(=O)[C@H](CC(N)=O)NC(=O)[C@H](CO)NC(=O)[C@H](CO)NC(=O)[C@H](Cc1c[nH]cn1)NC(=O)[C@H](Cc1c[nH]cn1)NC(=O)[C@H](CC(C)C)NC(=O)[C@H](Cc1ccccc1)NC(=O)[C@H](CCC(=O)O)NC(=O)[C@H](C)NC(=O)[C@H](CC(C)C)NC(=O)[C@H](CCCNC(=N)N)NC(=O)[C@H](CCC(N)=O)NC(=O)[C@@H](NC(=O)[C@H](C)NC(=O)[C@@H]1CSSC[C@H](NC(=O)[C@H](Cc2c[nH]cn2)NC(=O)[C@H](Cc2c[nH]cn2)NC(=O)[C@H](Cc2c[nH]cn2)NC(=O)CC[C@H](NC(=O)CCCCCCCCCCCCCCCCCCC(=O)O)C(=O)O)C(=O)N[C@@H](CC(N)=O)C(=O)N[C@@H]([C@@H](C)O)C(=O)N[C@@H](C)C(=O)N[C@@H]([C@@H](C)O)C(=O)N1)[C@@H](C)O)C(=O)N[C@@H](CC(C)C)C(=O)N1CCC[C@H]1C(=O)N1CCC[C@H]1C(=O)N[C@H](C(=O)N[C@@H](CC(N)=O)C(=O)N[C@H](C(=O)NCC(=O)N[C@@H](CO)C(=O)N[C@@H](CCCNC(=N)N)C(=O)N[C@H](C(=O)N[C@@H](Cc1ccc(O)cc1)C(N)=O)[C@@H](C)O)C(C)C)[C@@H](C)O) | 192 | 429 | 133 | 1340
